Here are results for 16 sequences from the nanobody polyreactivity screen of Harvey et al. (2022).

This series can be described thus: yeast display, Sf9 membrane polyspecificity reagent, FACS + sequencing; frameworks hold sequencing errors. A digest of the protocol:
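Nanobodies came from a synthetic yeast display library in Saccharomyces cerevisiae BJ5465, induced with galactose for 36–48 hours and stained for 1 hour at 4 °C with 10% biotinylated, detergent-solubilized Sf9 membrane reagent. Cells were enriched on streptavidin microbeads and then FACS-sorted, with low and high (top ~1%) gates set on anti-HA fluorescence for expression and streptavidin fluorescence for reagent binding. Each polyreactivity label reflects the gate a clone came from. Genes were amplified by colony PCR, sequenced by MiSeq 2 × 250 and filtered by CDR length.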
In the case of “QVQLVESGGGLVQAGGSLRLSCAASGITFRYNAMGWYRQAPGKERELVAAITFSGGSTYYADSVKGRFTISRDNAKNTVNLQMNSLKPEDTAVYYCAKLGSTSSRGNYDYWGQGTQVTVSS”, the “polyreactivity (PSR sort gate)” value was “low polyreactivity”. In the case of “QVQLVESGGGLVQAGGSLRLSCAASGITFRYYAMGWYRQAPGKERELVAAISSGSSTYYADSVKGRFTISRDNAKNTVYLQMNSLKPEDTAVYYCAARTYTTSRATTVYKRLNYWGQGTQVTVSS” it was “high polyreactivity”; in that of “QVQLVESGGGLVQAGGSLRLSCAASGITFRYYAMGWYRQAPGKERELVAAITGNGGGTYADSVKGRFTISRDNAKNTVYLQMNSLKPEVTAVYYCAADEPGLSWYDSYRYPDYGYDYWGQGTQVTVSS”, “low polyreactivity”; in that of “QVQLVESGGGLVQAGGSLRLSCAASGITFRYYAMGWYRQAPGKERELVATISWSGGSTYYADSVKGRFTISRDNAKNTVYLQMNSLKPEDTAVYYCNADWYRSAWSKYDYWGQGTQVTVSS”, “high polyreactivity”. Next, “QVQLVESGGGLVQAGGSLRLSCAASGITFRYYTMGWYRQAPGKERELVAVISWSGGSTYYADSVKGRFTISRDNAKNTVYLQMNSLKPEDTAVYYCAAVRRISRYDYWGQGTQVTVSS”: “high polyreactivity”; “QVQLVESGGGLVQAGGSLRLSCAASGITFSFYAMGWYRQAPGKERELVADITRGGNTNYADSVKGRFTISRDNAKNTVYLQMNSLKPEDTAVYYCNARRRGAGGYDYWGQGTQVTVSS”: “high polyreactivity”. Next, “QVQLVESGGGLVQAGGSLRLSCAASGITFSHYAMGWYRQAPGKERELVAGITWSGGRTYYADSVKGRFTISRDNAKNTVYLQMNSLKPEDTAVYYCAPIHRTGYDMDYWGQGTQVTVSS”: “low polyreactivity”. For “QVQLVESGGGLVQAGGSLRLSCAASGITFSKYAMGWYRPAPGKERELVAAISSTASTNYADSVKGRFTISRDNAKHTVYFQMNSLKPEDTAVYYCNAGLFFQWFWTYDDYWGQGTQVTVSS”, the “polyreactivity (PSR sort gate)” value is given as “low polyreactivity”.

In the case of “QVQLVESGGGLVQAGGSLRLSCAASGITFSLYAMGWYRQAPGKERELVAAISKSGGSTYYADSVKGRFTISRDNAKNTVYLQMNSLKPEDTAVYYCAADFVSKTPWHAQDDYWGQGTQVTVSS”, the “polyreactivity (PSR sort gate)” value is “low polyreactivity”. In the case of “QVQLVESGGGLVQAGGSLRLSCAASGITFSLYVMGWYRQAPGKERELVAAISTSGGSTYYADSVKGRFTISRDNAKNTVYLQMTSLKPEDTAVYYCAAVYVLSWYVQTYDYWGQGTQVTVSS” it was “low polyreactivity”; in that of “QVQLVESGGGLVQAGGSLRLSCAASGITFSRNAMGWYRQAPGKERELVATITSGGSTNYADSVKGRFTISRDNAKNTVYLQMNSLKPEDTAVYYCNAVWNTFISGRSYDYWGQGTQVTVSS”, “low polyreactivity”. Next, “QVQLVESGGGLVQAGGSLRLSCAASGITFSRNVMGWYRQAPGKERELVAAISRSGGRTYYADSVKGRFTISRDTAKNTVYLQINSLKAEDTAVYYCNRDIGGTSVLDDYWGQGTQVTVSS”: “low polyreactivity”; “QVQLVESGGGLVQAGGSLRLSCAASGITFSRYAMGWYRQAPGKERELVAAISSGGSTYYADSVKGRFTISRDNAKNTVYLQMNSLIPEDTAVYYCAADGLTGSKYRATGYYWGQGTQVTVSS”: “high polyreactivity”. In the case of “QVQLVESGGGLVQAGGSLRLSCAASGITFSRYAMGWYRQAPGTERELVAAITSSGGSTYYADSVKGRFTISRDNAKNTVYLQMNSLKPEDTAVYYCAATSYYTREQYYYWGQGTQVTVSS” it was “high polyreactivity”. On to “QVQLVESGGGLVQAGGSLRLSCAASGITFSSNTRGCYRQATGNETELVAAISSSGGSTYYADSVKGRFTISRDNAKNTFYLQINSLKPEDTAVYYCNTVRFRGWVWWEYDYWGQGTQVTVSS”, for which the “polyreactivity (PSR sort gate)” value is given as “high polyreactivity”. “QVQLVESGGGLVQAGGSLRLSCAASGITFSSYAMGWSRQAPGKERELVAAISSGGSTYYADSVKGRFTISRDNAKNTVYLQMNSLKPEDTAVYYCRPLVTLDWYKFGYWGQGTQVTVSS”: the “polyreactivity (PSR sort gate)” value is “low polyreactivity”.
